Positions count from the first letter of the chain named. In names and notes the source's numbering stands.

B1: dipeptide BP T44C conjugated to NBD (receptor, E. coli, not shown: small tags and cut ends)
chain: MKTLVYCSEGSPEGFNPQLFTSGTTYDASSVPLYNRLVEFKIGTCEVIPGLAEKWEVSEDGKTYTFHLRKGVKWHDNKEFKPTRELNADDVVFSFDRQKNAQNPYHKVSGGSYEYFEGMGLPELISEVKKVDDNTVQFVLTRPEAPFLADLAMDFASILSKEYADAMMKAGTPEKLDLNPIGTGPFQLQQYQKDSRIRYKAFDGYWGTKPQIDTLVFSITPDASVRYAKLQKNECQVMPYPNPADIARMKQDKSINLMEMPGLNVGYLSYNVQKKPLDDVKVRQALTYAVNKDAIIKAVYQGAGVSAKNLIPPTMWGYNDDVQDYTYDPEKAKALLKEAGLEKGFSIDLWAMPVQRPYNPNARRMAEMIQADWAKVGVQAKIVTYEWGEYLKRAKDGEHQTVMMGWTGDNGDPDNFFATLFSCAASEQGSNYSKWCYKPFEDLIQPARATDDHNKRVELYKQAQVVMHDQAPALIIAHSTVFEPVRKEVKGYVVDPLGKHHFENVSIE
modifications: NBD (N,N'-dimethyl-N-(iodoacetyl)-N'-(7-nitrobenz-2-oxa-1,3-diazol-4-yl)ethylenediamide) conjugated to the thiol of Cys 44
B2: dipeptide BP K394C-NBD conjugate (receptor, E. coli, not shown: small tags and cut ends)
chain: B1 chain with C45T, K395C
modifications: NBD fluorophore conjugated to the thiol of Cys 394
B3: dipeptide BP D450C-Acrylodan conjugate (receptor, E. coli, not shown: small tags and cut ends)
chain: B1 chain with C45T, D451C
modifications: acrylodan fluorophore conjugated to the thiol of Cys 450
B4: dipeptide BP T44C-Fluorescein conjugate (receptor, E. coli, not shown: small tags and cut ends)
chain: B1 chain
modifications: fluorescein (5-iodoacetamidofluorescein) conjugated to the thiol of Cys 44
B5: dipeptide BP W315C-JPW4045 conjugate (receptor, E. coli, not shown: small tags and cut ends)
chain: B1 chain with C45T, W316C
modifications: JPW4045 fluorophore conjugated to the thiol of Cys 315
B6: dipeptide BP K394C-JPW4042 conjugate (receptor, E. coli, not shown: small tags and cut ends)
chain: B1 chain with C45T, K395C
modifications: JPW4042 fluorophore conjugated to the thiol of Cys 394
B7: dipeptide BP W315C-NBD conjugate (receptor, E. coli, not shown: small tags and cut ends)
chain: B1 chain with C45T, W316C
modifications: NBD fluorophore conjugated to the thiol of Cys 315
B8: dipeptide BP K394C-Fluorescein conjugate (receptor, E. coli, not shown: small tags and cut ends)
chain: B1 chain with C45T, K395C
modifications: fluorescein (5-iodoacetamidofluorescein) conjugated to the thiol of Cys 394
B9: dipeptide BP W315C-Acrylodan conjugate (receptor, E. coli, not shown: small tags and cut ends)
chain: B1 chain with C45T, W316C
modifications: acrylodan fluorophore conjugated to the thiol of Cys 315
B10: dipeptide BP S111C-Fluorescein conjugate (receptor, E. coli, not shown: small tags and cut ends)
chain: B1 chain with C45T, S112C
modifications: fluorescein (5-iodoacetamidofluorescein) conjugated to the thiol of Cys 111
B11: dipeptide BP D450C-JPW4039 conjugate (receptor, E. coli, not shown: small tags and cut ends)
chain: B1 chain with C45T, D451C
modifications: JPW4039 fluorophore conjugated to the thiol of Cys 450
B12: dipeptide BP T44C-NBD conjugate (receptor, E. coli, not shown: small tags and cut ends)
chain: B1 chain
modifications: NBD fluorophore conjugated to the thiol of Cys 44
B13: dipeptide BP S111C-Acrylodan conjugate (receptor, E. coli, not shown: small tags and cut ends)
chain: B1 chain with C45T, S112C
modifications: acrylodan fluorophore conjugated to the thiol of Cys 111
B14: dipeptide BP K394C-JPW4039 conjugate (receptor, E. coli, not shown: small tags and cut ends)
chain: B1 chain with C45T, K395C
modifications: JPW4039 fluorophore conjugated to the thiol of Cys 394
B15: dipeptide BP R141C-Fluorescein conjugate (receptor, E. coli, not shown: small tags and cut ends)
chain: B1 chain with C45T, R142C
modifications: fluorescein (5-iodoacetamidofluorescein) conjugated to the thiol of Cys 141
B16: dipeptide BP D450C-JPW4042 conjugate (receptor, E. coli, not shown: small tags and cut ends)
chain: B1 chain with C45T, D451C
modifications: JPW4042 fluorophore conjugated to the thiol of Cys 450
B17: dipeptide BP S111C-JPW4039 conjugate (receptor, E. coli, not shown: small tags and cut ends)
chain: B1 chain with C45T, S112C
modifications: JPW4039 fluorophore conjugated to the thiol of Cys 111
B18: dipeptide BP W315C-JPW4039 conjugate (receptor, E. coli, not shown: small tags and cut ends)
chain: B1 chain with C45T, W316C
modifications: JPW4039 fluorophore conjugated to the thiol of Cys 315
B19: dipeptide BP K394C-Acrylodan conjugate (receptor, E. coli, not shown: small tags and cut ends)
chain: B1 chain with C45T, K395C
modifications: acrylodan fluorophore conjugated to the thiol of Cys 394
B20: dipeptide BP S111C-JPW4042 conjugate (receptor, E. coli, not shown: small tags and cut ends)
chain: B1 chain with C45T, S112C
modifications: JPW4042 fluorophore conjugated to the thiol of Cys 111
B21: dipeptide BP R141C-Acrylodan conjugate (receptor, E. coli, not shown: small tags and cut ends)
chain: B1 chain with C45T, R142C
modifications: acrylodan fluorophore conjugated to the thiol of Cys 141
B22: dipeptide BP D450C-JPW4045 conjugate (receptor, E. coli, not shown: small tags and cut ends)
chain: B1 chain with C45T, D451C
modifications: JPW4045 fluorophore conjugated to the thiol of Cys 450
B23: dipeptide BP K394C conjugated to fluorescein (receptor, E. coli, not shown: small tags and cut ends)
chain: B1 chain with C45T, K395C
modifications: fluorescein (5-iodoacetamidofluorescein) conjugated to the thiol of Cys 394
B24: dipeptide BP K394C mutant conjugated to NBD (protein, Escherichia coli, not shown: small tags and cut ends)
chain: B1 chain with C45T, K395C
modifications: NBD fluorophore (N,N'-dimethyl-N-(iodoacetyl)-N'-(7-nitrobenz-2-oxa-1,3-diazol-4-yl)ethylenediamide) conjugated to the thiol of Cys 394

The target in one assay is Gly-Leu dipeptide. Nature of the assay: fluorimetric titration of the fluorophore conjugate with ligand; low end of the range over 21 conjugates.
A word on the Kd: it is the concentration at which binding is half-saturated. B1: the Kd worked out at 6 nM.

A further assay has as its target Gly-Leu dipeptide. Description: fluorimetric titration of the fluorophore conjugate with ligand, fit to binding isotherm.
The molecule B2 displayed a Kd of 12 nM.
B3 yielded a Kd of 11000 nM.
For the molecule B4, the Kd was determined as 640 nM.
In turn, B5 returned a Kd of 3200 nM.
Take B6: the Kd came to 78000 nM.
The molecule B7 had a Kd of 60 nM.
Same read-out and setting: to B8 belongs 93000 nM; to B9, 130 nM.
The molecule B10 showed a Kd of 2600 nM.
In the case of B11, the Kd stood at 910 nM.
In turn, B12 displayed a Kd of 6 nM.
Same read-out and setting: to B13 belongs 4800 nM; to B14, 30000 nM; to B15, 38000 nM.
In turn, B16 returned a Kd of 1500 nM.
In the case of B17, the Kd came to 34000 nM.
Still for that read-out and setting: the result for B18 reads 1000 nM.
In the case of B19, the Kd was 23000 nM.
As to B20, the equilibrium dissociation constant (Kd) stood at 15800 nM.
In the case of B21, the Kd is 2300 nM.
The same measure, in the same setting: to B22 belongs 2000 nM.

The target of a further assay is Gly-Leu dipeptide. Nature of the assay: fluorimetric titration of the fluorophore conjugate with ligand; high end of the range over 21 conjugates.
In the case of B23, the Kd is 93 µM.

The target of the next assay is Gly-Leu dipeptide. Nature of the assay: fluorimetric titration of the fluorophore conjugate with ligand, fit to a binding isotherm.
Turning to B24, the Kd is 6 nM.
